Consider 4 substances from IntAct's records for PubMed 25517094.

Sequence of Beta-1 adrenergic receptor (Mus musculus), P34971 P272A;P273A;P283A;P284A (P34971 whole entry P272A/P273A/P283A/P284A): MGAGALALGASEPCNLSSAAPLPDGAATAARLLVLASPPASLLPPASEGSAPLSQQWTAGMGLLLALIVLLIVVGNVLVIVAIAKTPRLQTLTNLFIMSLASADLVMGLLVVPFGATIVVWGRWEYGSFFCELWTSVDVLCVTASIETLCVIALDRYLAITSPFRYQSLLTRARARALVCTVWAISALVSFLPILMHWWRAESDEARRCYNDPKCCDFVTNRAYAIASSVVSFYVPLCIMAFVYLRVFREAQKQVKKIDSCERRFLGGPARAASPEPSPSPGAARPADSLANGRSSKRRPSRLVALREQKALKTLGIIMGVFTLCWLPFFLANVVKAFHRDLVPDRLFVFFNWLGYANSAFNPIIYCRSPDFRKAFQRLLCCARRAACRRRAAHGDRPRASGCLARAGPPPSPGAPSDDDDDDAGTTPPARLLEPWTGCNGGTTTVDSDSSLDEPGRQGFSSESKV
Sequence of Beta-1 adrenergic receptor (Mus musculus), P34971 P272A;P273A (P34971 whole entry P272A/P273A): as the sequence (P34971 whole entry P272A/P273A/P283A/P284A) above, with A283P, A284P counted along it
Sequence of Beta-1 adrenergic receptor (Mus musculus), P34971 R271A (P34971 whole entry R271A): as the sequence (P34971 whole entry P272A/P273A/P283A/P284A) above, with R271A, A272P, A273P, A283P, A284P counted along it
Sequence of Beta-1 adrenergic receptor (Mus musculus), P34971 R298E;R299E (P34971 whole entry R298E/R299E): as the sequence (P34971 whole entry P272A/P273A/P283A/P284A) above, with A272P, A273P, A283P, A284P, R298E, R299E counted along it

This assay deals with SH3GL1, Q99961-1.
Sequence of SH3GL1, Q99961-1 (Q99961 whole entry): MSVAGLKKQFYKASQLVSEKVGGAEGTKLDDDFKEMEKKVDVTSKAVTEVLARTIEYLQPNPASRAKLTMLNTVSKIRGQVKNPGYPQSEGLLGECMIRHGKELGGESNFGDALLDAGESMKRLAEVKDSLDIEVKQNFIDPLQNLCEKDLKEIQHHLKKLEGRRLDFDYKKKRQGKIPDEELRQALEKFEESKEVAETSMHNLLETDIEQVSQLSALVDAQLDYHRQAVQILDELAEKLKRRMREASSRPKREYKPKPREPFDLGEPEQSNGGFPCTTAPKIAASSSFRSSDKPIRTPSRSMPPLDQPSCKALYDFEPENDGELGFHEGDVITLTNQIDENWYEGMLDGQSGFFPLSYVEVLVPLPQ
As to “Beta-1 adrenergic receptor (Mus musculus), P34971 P272A;P273A”, the “effect of a mutation on the interaction” value was “decreasing interaction strength”.
As to “Beta-1 adrenergic receptor (Mus musculus), P34971 P272A;P273A;P283A;P284A”, the “effect of a mutation on the interaction” value is reported as “disrupting interaction strength”.
Regarding “Beta-1 adrenergic receptor (Mus musculus), P34971 R271A”, the “effect of a mutation on the interaction” value is on record as “decreasing interaction strength”.
With “Beta-1 adrenergic receptor (Mus musculus), P34971 R298E;R299E”, the “effect of a mutation on the interaction” value is “decreasing interaction strength”.
